# Article PMC6819324
# Target: T1, AdpAlin (Streptomyces lincolnensis NRRL 2936) (UniProt A0A1B1M9Y0)
# T1 sequence: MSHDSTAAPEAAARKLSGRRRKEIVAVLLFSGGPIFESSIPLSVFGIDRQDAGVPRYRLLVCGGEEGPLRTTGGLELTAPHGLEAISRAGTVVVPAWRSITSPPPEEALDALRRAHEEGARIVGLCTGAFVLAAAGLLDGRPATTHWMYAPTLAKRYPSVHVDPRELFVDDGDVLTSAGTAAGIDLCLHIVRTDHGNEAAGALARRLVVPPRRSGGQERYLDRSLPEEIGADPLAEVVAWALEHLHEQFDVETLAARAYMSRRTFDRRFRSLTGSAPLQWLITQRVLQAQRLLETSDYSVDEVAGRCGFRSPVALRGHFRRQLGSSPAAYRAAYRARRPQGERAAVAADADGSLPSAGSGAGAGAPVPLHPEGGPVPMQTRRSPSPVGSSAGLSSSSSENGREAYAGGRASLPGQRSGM
# Assay: EMSA
# Conditions: EMSA: 20 mM Tris-HCl pH 7.5, 5% glycerol, 0.1% BSA; 2.5 nM 5'-biotin probe; AdpAlin 0-6.4 uM (12.8 uM for probe-neg); 200-fold unlabeled competitor; salt and …
row,Sequence,binding
1,AGCCAGTGACGATAAGCGACCACCTGGGTCTCGCCCTGACCGTAGATCTTCGACAGATCCGTGGCACGCGCCGCCACTGCGGTGGTCCGGCCGACGATGGGTGTGGTGGTCACGAGAGGGCACTCCTGGGAACGACGACTGGGGGAATACCTCCATCGTCGCCGCCGCGGAGCGCCGTGTAGTCAGCCGCTGTTCCCTTATCGTCACTGGCT (double strand) [bldAp-N],no binding
2,AGCCAGTGACGATAAGCGAGACAAGCAATCGGCTTCACGCCCTGTCAAGCGGCAGCAGACGGCTTCCCGTAATTCCTGGAAGTTATCCGGGAGTCGGCGCGAACGGCCCTCGATATCCGGTGCATTACCTGGGAATAGGGAATAGGGAACCGGTAATCCGCGGTCGGGGCAAGCGTCTGGGTGCGTGGACTTATCGTCACTGGCT (double strand) [mlmbAp-A],no binding
3,AGCCAGTGACGATAAGCGAGACAAGCAATCGGCTTCACGCCCTGTCAAGCGGCAGCAGACGGCTTCCCGTAATTCCTGGAAGTTATCCGGGAGTCGGCGCGAACGTGCCGCCACGGCCCTCGATATCCGGTGCATTACCTGGGAATAGGGAATAGGGAACCGGTAATCCGCGGTCGGGGCAAGCGTCTGGGTGCGTGGACTTATCGTCACTGGCT (double strand) [lmbAp-A],binds
4,AGCCAGTGACGATAAGCGGGGACACACAGGGGTGGGCGGCACGGTGGGGGAAATACACCGGTCGGCTGACCGGTTTCCGCGCACGCGCCCGACTCTTTTCAGCCAACTTCCGACCACCGGGCATCCTTGTGTCCAACCACCCCCCAACCCCCGTTTGACCTGCACGGAAAGGGTCCCCACTTATCGTCACTGGCT (double strand) [adpAp-B-1],no binding
5,AGCCAGTGACGATAAGCGTGTCTGCATTCCACCATCCGGGCAGGCCATGGGCTCCGCATCGAGGTTCCCGAGCCTATCGGGACGCCTCCCCCCAACAGGGGTCGGGTGGCCCGATGTTGTCTTATTTTATTGAGTTCTGAGGGAGCCTTATCGTCACTGGCT (double strand) [bldAp-A],binds
6,AGCCAGTGACGATAAGCTATAGGCTTCGCGGGCTTCGAACTCCGCAGCCGCCACGCCGACTTCGACGGTGCCGCCTACCGCCCGGACAGCCGCTACCACGTGTCCGTCTACGCCCGGGCGCACGGTGACTAGGGCGCGACGGCTCGCCGCCGCCGCGTTCCGGGCCTTATCGTCACTGGCT (double strand) [mlmbKp-B],no binding
7,AGCCAGTGACGATAAGGCGTTTACCTAGAACAAATCCGGGGCAAGCTCGCTCAGCTGTCGCCATGGGCGCCCTGACGCCACTGCGGCCCACGGATCGCCCCGTCAGCAAACTGGCCGAATGCCAACGGCATACGGCCAGTTCCTGACGCGGGCCACGGGGTTCACTCCGCGGACCACGCGTGCGGCGGCCGCCTCACTTATCCCGATGAGGCCACGCGTCGTCCGCCTCCGCGATCTCCTCCAGGGTTCCGTCCTTATCGTCACTGGCT (double strand) [lmbUp-C],binds
8,AGCCAGTGACGATAAGGGCCACACGTCGTAGACATCTGCGATCTTGTCACCGTAGAGCTTCGCGAAATCATGGTCGGACATTGAATTCTCTTTCCTCACCAGGACGTTGGCCACTCGGCGAGCGGCCGCAGGGAGACGGTGGCATGGGACGCGAGGGACAGTCGACACGGCAGCCGGTACCGGCGGTGTTCTTCGACCGGGACGGCGCTTATCGTCACTGGCT (double strand) [lmbJp-A],binds
9,AGCCAGTGACGATAAGGGCCACACGTCGTAGACATCTGCGATCTTGTCACCGTAGAGCTTCGCGAAATCATGGTCGGACATTGAATTCTCTTTCCTCACCAGGCTCGGCGAGCGGCCGCAGGGAGACGGTGGCATGGGACGCGAGGGACAGTCGACACGGCAGCCGGTACCGGCGGTGTTCTTCGACCGGGACGGCGCTTATCGTCACTGGCT (double strand) [mlmbJp-A],no binding
10,AGCCAGTGACGATAAGGGCGTAGACGGACACGTGGTAGCGGCTGTCCGGGCGGTAGGCGGCACCGTCGAAGTCGGCGTGGCGGCTGCGGAGTTCGAAGCCCGCGAAGCGGGCCATCAGGTCCAGCTCCGTGGGGTGCTTATCGTCACTGGCT (double strand) [lmbKp-B],binds
11,AGCCAGTGACGATAAGGGTTCCCGTGGTGCTCCTCTGGTACGGCACCTCGCTCGCCGGCGCCGCCGGCACCGCGCTCGGACTGGCCGCCGTCACCGCCGTCTGCCGTATCCTCCTGCGCCAGTCGGAGCGCGGTGCGGCACGGCTACTGGCCGAAGAACGGGCCCCCCATCGCGGCCACCGCCACCGGGCCGGAACGGGGACACACAGGGGTGGGCGCTTATCGTCACTGGCT (double strand) [adpAp-B-2],binds
12,AGCCAGTGACGATAAGTCGGACGAGGACGACGACAACCCCGCGGACGACCCGACAGGACTCGGCGAACGCCGCGTCTGCATCGGCACCGGCCCGCCCTCCGGATGCAGCGGAACCGGCGCACCGGCACCCGCCCCCGATCCGGCGGACGGCAAGGACCCGTCAGCGTCCTTATCGTCACTGGCT (double strand) [probe-neg],no binding
13,AGCCAGTGACGATAAGTCTACTGTGTCGCGTGATGCCGGAGTGACCAGTTCGTCATCCGGCAGATTGTCGACTTGGCAACTTGGCGTGAAGCATTCGATCACGAAGCGTTGCACTCGTGGGGCGTGCAGGGAAGTGCGCCTTGTCGCAGTGGCCAATCCACGTAGGGTGCGCTTATCGTCACTGGCT (double strand) [adpAp-A],binds
14,AGCCAGTGACGATAAGTGATCCGTACTTGATACATTGGCCGTTACATGTATCGGAGTTCCGAGGGGGGGCAATGATGCTGGTTCCGCCAAGCCATTCATGAGCTGCTCGCCTGCGCCGCCCTTCGTGGCGGTGGCGCGACATCGATGAGCGTGGTGGGCGCCGAACAACGGGGGTGAATCGCTGCTTCTTATCGTCACTGGCT (double strand) [lmbUp-A],binds
